Target: SARS-CoV-2 nucleocapsid (N) protein, full-length (SARS-CoV-2 (protein amplified from …, UniProt A0A6B9VLF5 1-419))
Assay: fluorescence polarization
Details: protein: recombinant; tags: 6xHis (pET28a-TEV), not cleaved; chain copies: 2; label: 5'-FITC; hairpin

Binder: CACUCACUGUCAAAAAAGAUGGUAGAGU (structured_RNA) [RNA2 (UUUUUU to AAAAAA)]
- Kd: 498 ± 43.2 nM

From article PMC9628480, “Discovery and structural characterization of chicoric acid as a SARS-CoV-2 nucleocapsid protein ligand and RNA binding disruptor”
